Assay results published in patent US20210253662A1, “Long-Acting Recombinant GLP1-Fc-CD47 Protein and Preparation and Use Thereof” (ZHEJIANG PALO ALTO PHARMACEUTICALS, INC, priority 2018, published 2021).

Assays:
[1] = Stability in rat serum in vitro, read as remaining activity in activating hGLP-1R; type: in vitro ADME; details: 37° C., activity at 0.03 nM, day 0 as 100%
Excerpt: The decay rate of protein activity indirectly reflects the stability of the protein in the serum.

[2] = background statement; cited from earlier work
Male C57BL/KsJ mice = experiment: Intraperitoneal glucose tolerance test (IPGTT) after a single s.c. dose; type: in vivo; details: s.c. 30 nmol/kg
Method: Male C57BL/KsJ mice of 6 weeks old are randomized into a vehicle control group, a positive drug group and a test protein group according to body weights and blood glucose levels, and are subcutaneously (s.c.) injected with corresponding drugs. An intraperitoneal glucose tolerance test (IPGTT) is performed after dosing for a period of time following the steps as follows: fast the mice for 6 h, collect blood samples from tail veins of the mice in each group before the test, measure the blood glucose levels with a Roche ACCU-CHEK blood glucose meter and record the results at a −60 min time point; measure blood glucose levels again at 0 min in each group before intraperitoneally injecting 2 g/kg glucose (body weight), afterwards measure and record blood glucose levels of mice in each group at 15 min, 30 min, 60 min and 120 min. An IPGTT curve is plotted based on the blood glucose levels to calculate the areas under curve (AUC0-120 min (mM*min)), and the differences are statistically analyzed using the t-test.

human GLP-1 receptor = human GLP-1 receptor (human, UniProt P43220 24-463); experiment: cell-based or functional assay

Molecule: L1: L1 protein (dulaglutide, SEQ ID NO.: 11), GLP-1-Fc fusion protein, positive control, dimer [reference compound]
- Decrease in activity after 7 days of incubation in serum [1]: 33.3%
- half-life in vivo [2]: 4.5 to 4.7 days
- Decrease of area under curve (AUC) in blood glucose vs solvent control group (Male C57BL/KsJ mice; seven days after a single dose, IPGTT AUC0-120 min): 14.8%
- Hypoglycemic activity (AUC) ten days post-dose (Male C57BL/KsJ mice; ten days after a single dose, IPGTT): no significant decrease

Molecule: HGEGTFTSDVSSYLEEQAAKEFIAWLVKGGG [Gly8-Glu22-Gly36-GLP1(7-37)]
- Activity of Activated hGLP-1R (relative value from EC50, CRE-NanoLuc luciferase reporter in AD293 cells; 100% for GLP1 (7-37)) (human GLP-1 receptor): 121%

Molecule: HGEGTFTSDVSSYLEEQAAKEFIAWLVRGAG [Gly8-Glu22-Arg34-Ala36-GLP1(7-37)]
- Activity of Activated hGLP-1R (relative value from EC50, CRE-NanoLuc luciferase reporter in AD293 cells; 100% for GLP1 (7-37)) (human GLP-1 receptor): 168%

Molecule: HGEGTFTSDVSSYLEEQAAKEFIAWLVRGLG [Gly8-Glu22-Arg34-Leu36-GLP1(7-37)]
- Activity of Activated hGLP-1R (relative value from EC50, CRE-NanoLuc luciferase reporter in AD293 cells; 100% for GLP1 (7-37)) (human GLP-1 receptor): 113%

Molecule: HGEGTFTSDVSSYLEEQAAKEFIAWLVRGVG [Gly8-Glu22-Arg34-Val36-GLP1(7-37)]
- Activity of Activated hGLP-1R (relative value from EC50, CRE-NanoLuc luciferase reporter in AD293 cells; 100% for GLP1 (7-37)) (human GLP-1 receptor): 142%

Molecule: HGEGTFTSDVSSYLEEQAAKEFIAWLVRGGG [Gly8-Glu22-Arg34-Gly36-GLP1(7-37)]
- Activity of Activated hGLP-1R (relative value from EC50, CRE-NanoLuc luciferase reporter in AD293 cells; 100% for GLP1 (7-37)) (human GLP-1 receptor): 163%
